Results: patent publication US20250215103A1 (Hoffmann-La Roche, published 2025)

Key:
Assay in all cases: cell-based or functional assay
[1] = biological target: T1, human PD1 on cells (Jurkat cells expressing human PD1; activated human T cells) (human, UniProt Q15116 25-288)
[2] = biological target: T1, human PD1 on cells (Jurkat cells …); remark: listed apart in the source
[3] = biological target: T1, human PD1 on cells (Jurkat cells …); remark: listed apart in the source

T1 sequence (Q15116 25-288 limits assumed): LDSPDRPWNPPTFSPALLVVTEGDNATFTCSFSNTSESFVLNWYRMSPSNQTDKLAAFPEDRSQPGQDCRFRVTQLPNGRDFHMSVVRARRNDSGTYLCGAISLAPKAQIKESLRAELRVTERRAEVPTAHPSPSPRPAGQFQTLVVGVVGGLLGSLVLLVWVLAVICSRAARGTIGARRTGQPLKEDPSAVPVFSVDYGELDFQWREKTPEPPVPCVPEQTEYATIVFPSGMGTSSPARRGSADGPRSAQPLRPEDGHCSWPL

Binder | Fold activity vs. control (EC50 of Granzyme B, mMLR), control PD1-0103-312 [1] | Fold activity vs. control (EC50 of Granzyme B, mMLR), control 8014 [2] | EC50 (pM) of Granzyme B production, mMLR [3]
bispecific CrossMab 8012 (PD1-0103-0312/51A165) (bispecific antibody, human IgG1, kappa, L234A L235A) heavy 1: EVQLQQSGPELVKPGASVKMSCKASGYTFTSYVMHWVKQKPGQGLEWIGYVNPYNDDTKYNEKFRGKATLTSDKSSSTAYMELSSLTSEDSAVYYCARSYYYYSMDNWGQGTSVTVSSASTKGPSVFPLAPSSKSTSGGTAALGCLVEDYFPEPVTVSWNSGALTSGVHTFPAVLQSSGLYSLSSVVTVPSSSLGTQTYICNVNHKPSNTKVDEKVEPKSCDKTHTCPPCPAPEAAGGPSVFLFPPKPKDTLMISRTPEVTCVVVDVSHEDPEVKFNWYVDGVEVHNAKTKPREEQYNSTYRVVSVLTVLHQDWLNGKEYKCKVSNKALGAPIEKTISKAKGQPREPQVCTLPPSRDELTKNQVSLSCAVKGFYPSDIAVEWESNGQPENNYKTTPPVLDSDGSFFLVSKLTVDKSRWQQGNVFSCSVMHEALHNHYTQKSLSLSP light 1: QIVLTQSPAIMSASPGEKVTVTCSASSSIRYMHWYQQKPGTSPKRWIYDTSELASGVPARFSGSGSGTSYSLTINSMEAEDAATYYCHQRSSYPFTFGGGTKLEIKRTVAAPSVFIFPPSDRKLKSGTASVVCLLNNFYPREAKVQWKVDNALQSGNSQESVTEQDSKDSTYSLSSTLTLSKADYEKHKVYACEVTHQGLSSPVTKSFNRGEC heavy 2: not shown light 2: EVQLLESGGGLVQPGGSLRLSCAASGFSFSSYTMSWVRQAPGKGLEWVATISGGGRDIYYPDSVKGRFTISRDNSKNTLYLQMNSLRAEDTAVYYCVLLTGRVYFALDSWGQGTLVTVSSASVAAPSVFIFPPSDEQLKSGTASVVCLLNNFYPREAKVQWKVDNALQSGNSQESVTEQDSKDSTYSLSSTLTLSKADYEKHKVYACEVTHQGLSSPVTKSFNRGEC | 3.82 fold vs PD1-0103-312 | 1560 fold vs 8014 | 34 pM
bispecific CrossMab 8013 (PD1-0103-0312/1026) (bispecific antibody, human IgG1, kappa, L234A L235A) heavy 1: QSMQESGPGLVKPSQTLSLTCTVSGFSLSSYAMSWIRQHPGKGLEWIGYIWSGGSTDYASWAKSRVTISKTSTTVSLKLSSVTAADTAVYYCARRYGTSYPDYGDASGFDPWGQGTLVTVSSASTKGPSVFPLAPSSKSTSGGTAALGCLVEDYFPEPVTVSWNSGALTSGVHTFPAVLQSSGLYSLSSVVTVPSSSLGTQTYICNVNHKPSNTKVDEKVEPKSCDKTHTCPPCPAPEAAGGPSVFLFPPKPKDTLMISRTPEVTCVVVDVSHEDPEVKFNWYVDGVEVHNAKTKPREEQYNSTYRVVSVLTVLHQDWLNGKEYKCKVSNKALGAPIEKTISKAKGQPREPQVCTLPPSRDELTKNQVSLSCAVKGFYPSDIAVEWESNGQPENNYKTTPPVLDSDGSFFLVSKLTVDKSRWQQGNVFSCSVMHEALHNHYTQKSLSLSP light 1: AIQLTQSPSSLSASVGDRVTITCRASQSISSYLAWYQQKPGKAPKLLIYRASTLASGVPSRFSGSGSGTDFTLTISSLQPEDFATYYCQQNYASSNVDNTFGGGTKVEIKRTVAAPSVFIFPPSDRKLKSGTASVVCLLNNFYPREAKVQWKVDNALQSGNSQESVTEQDSKDSTYSLSSTLTLSKADYEKHKVYACEVTHQGLSSPVTKSFNRGEC heavy 2: not shown light 2: EVQLLESGGGLVQPGGSLRLSCAASGFSFSSYTMSWVRQAPGKGLEWVATISGGGRDIYYPDSVKGRFTISRDNSKNTLYLQMNSLRAEDTAVYYCVLLTGRVYFALDSWGQGTLVTVSSASVAAPSVFIFPPSDEQLKSGTASVVCLLNNFYPREAKVQWKVDNALQSGNSQESVTEQDSKDSTYSLSSTLTLSKADYEKHKVYACEVTHQGLSSPVTKSFNRGEC | 0.47 fold vs PD1-0103-312 | 191 fold vs 8014 | 388 pM
PD1-0103-0312 (antibody, V domains shown) VH: EVQLLESGGGLVQPGGSLRLSCAASGFSFSSYTMSWVRQAPGKGLEWVATISGGGRDIYYPDSVKGRFTISRDNSKNTLYLQMNSLRAEDTAVYYCVLLTGRVYFALDSWGQGTLVTVSS VL: DIVMTQSPDSLAVSLGERATINCKASESVDTSDNSFIHWYQQKPGQSPKLLIYRSSTLESGVPDRFSGSGSGTDFTLTISSLQAEDVAVYYCQQNYDVPWTFGQGTKVEIK |  |  | 110 pM
control CrossMab 8014 (PD1-0103-0312/Nada) (bispecific antibody, human IgG1, kappa, L234A L235A) heavy 1: EVQLVESGGGLVQPGGSLRLSCAASGFSIAGTAIHWVRQAPGKGLEWVASISPGGGSTAYADSVKGRFTISADTSKNTAYLQMNSLRAEDTAVYYCSRSGGSGASAMDYWGQGTLVTVSSASTKGPSVFPLAPSSKSTSGGTAALGCLVEDYFPEPVTVSWNSGALTSGVHTFPAVLQSSGLYSLSSVVTVPSSSLGTQTYICNVNHKPSNTKVDEKVEPKSCDKTHTCPPCPAPEAAGGPSVFLFPPKPKDTLMISRTPEVTCVVVDVSHEDPEVKFNWYVDGVEVHNAKTKPREEQYNSTYRVVSVLTVLHQDWLNGKEYKCKVSNKALGAPIEKTISKAKGQPREPQVCTLPPSRDELTKNQVSLSCAVKGFYPSDIAVEWESNGQPENNYKTTPPVLDSDGSFFLVSKLTVDKSRWQQGNVFSCSVMHEALHNHYTQKSLSLSP light 1: DIQMTQSPSSLSASVGDRVTITCRASQDVGSGVAWYQQKPGKAPKLLIGSASGLYSGVPSRFSGSRSGTDFTLTISSLQPEDFATYYCQQSASGGSTFGQGTKVEIKRTVAAPSVFIFPPSDRKLKSGTASVVCLLNNFYPREAKVQWKVDNALQSGNSQESVTEQDSKDSTYSLSSTLTLSKADYEKHKVYACEVTHQGLSSPVTKSFNRGEC heavy 2: not shown light 2: EVQLLESGGGLVQPGGSLRLSCAASGFSFSSYTMSWVRQAPGKGLEWVATISGGGRDIYYPDSVKGRFTISRDNSKNTLYLQMNSLRAEDTAVYYCVLLTGRVYFALDSWGQGTLVTVSSASVAAPSVFIFPPSDEQLKSGTASVVCLLNNFYPREAKVQWKVDNALQSGNSQESVTEQDSKDSTYSLSSTLTLSKADYEKHKVYACEVTHQGLSSPVTKSFNRGEC |  |  | 13100 pM
control 2+1 CrossMab 8158 (PD1-0103-0312/Nada BBB-format) (bispecific antibody, human IgG1, kappa, L234A L235A) light 1: EVQLLESGGGLVQPGGSLRLSCAASGFSFSSYTMSWVRQAPGKGLEWVATISGGGRDIYYPDSVKGRFTISRDNSKNTLYLQMNSLRAEDTAVYYCVLLTGRVYFALDSWGQGTLVTVSSASVAAPSVFIFPPSDEQLKSGTASVVCLLNNFYPREAKVQWKVDNALQSGNSQESVTEQDSKDSTYSLSSTLTLSKADYEKHKVYACEVTHQGLSSPVTKSFNRGEC light 2: DIQMTQSPSSLSASVGDRVTITCRASQDVGSGVAWYQQKPGKAPKLLIGSASGLYSGVPSRFSGSRSGTDFTLTISSLQPEDFATYYCQQSASGGSTFGQGTKVEIKRTVAAPSVFIFPPSDRKLKSGTASVVCLLNNFYPREAKVQWKVDNALQSGNSQESVTEQDSKDSTYSLSSTLTLSKADYEKHKVYACEVTHQGLSSPVTKSFNRGEC heavy 1: DIVMTQSPDSLAVSLGERATINCKASESVDTSDNSFIHWYQQKPGQSPKLLIYRSSTLESGVPDRFSGSGSGTDFTLTISSLQAEDVAVYYCQQNYDVPWTFGQGTKVEIKSSASTKGPSVFPLAPSSKSTSGGTAALGCLVKDYFPEPVTVSWNSGALTSGVHTFPAVLQSSGLYSLSSVVTVPSSSLGTQTYICNVNHKPSNTKVDKKVEPKSCDKTHTCPPCPAPEAAGGPSVFLFPPKPKDTLMISRTPEVTCVVVDVSHEDPEVKFNWYVDGVEVHNAKTKPREEQYNSTYRVVSVLTVLHQDWLNGKEYKCKVSNKALGAPIEKTISKAKGQPREPQVCTLPPSRDELTKNQVSLSCAVKGFYPSDIAVEWESNGQPENNYKTTPPVLDSDGSFFLVSKLTVDKSRWQQGNVFSCSVMHEALHNHYTQKSLSLSPGKGGGGSGGGGSEVQLVESGGGLVQPGGSLRLSCAASGFSIAGTAIHWVRQAPGKGLEWVASISPGGGSTAYADSVKGRFTISADTSKNTAYLQMNSLRAEDTAVYYCSRSGGSGASAMDYWGQGTLVTVSSASTKGPSVFPLAPSSKSTSGGTAALGCLVEDYFPEPVTVSWNSGALTSGVHTFPAVLQSSGLYSLSSVVTVPSSSLGTQTYICNVNHKPSNTKVDEKVEPKSCD heavy 2: not shown |  |  | 111 pM
control 2+1 CrossMab 8159 (PD1-0103-0312/Nada TCB-format) (bispecific antibody, human IgG1, kappa, L234A L235A) light 1: EVQLLESGGGLVQPGGSLRLSCAASGFSFSSYTMSWVRQAPGKGLEWVATISGGGRDIYYPDSVKGRFTISRDNSKNTLYLQMNSLRAEDTAVYYCVLLTGRVYFALDSWGQGTLVTVSSASVAAPSVFIFPPSDEQLKSGTASVVCLLNNFYPREAKVQWKVDNALQSGNSQESVTEQDSKDSTYSLSSTLTLSKADYEKHKVYACEVTHQGLSSPVTKSFNRGEC light 2: DIQMTQSPSSLSASVGDRVTITCRASQDVGSGVAWYQQKPGKAPKLLIGSASGLYSGVPSRFSGSRSGTDFTLTISSLQPEDFATYYCQQSASGGSTFGQGTKVEIKRTVAAPSVFIFPPSDRKLKSGTASVVCLLNNFYPREAKVQWKVDNALQSGNSQESVTEQDSKDSTYSLSSTLTLSKADYEKHKVYACEVTHQGLSSPVTKSFNRGEC heavy 1: DIVMTQSPDSLAVSLGERATINCKASESVDTSDNSFIHWYQQKPGQSPKLLIYRSSTLESGVPDRFSGSGSGTDFTLTISSLQAEDVAVYYCQQNYDVPWTFGQGTKVEIKSSASTKGPSVFPLAPSSKSTSGGTAALGCLVKDYFPEPVTVSWNSGALTSGVHTFPAVLQSSGLYSLSSVVTVPSSSLGTQTYICNVNHKPSNTKVDKKVEPKSCDGGGGSGGGGSEVQLVESGGGLVQPGGSLRLSCAASGFSIAGTAIHWVRQAPGKGLEWVASISPGGGSTAYADSVKGRFTISADTSKNTAYLQMNSLRAEDTAVYYCSRSGGSGASAMDYWGQGTLVTVSSASTKGPSVFPLAPSSKSTSGGTAALGCLVEDYFPEPVTVSWNSGALTSGVHTFPAVLQSSGLYSLSSVVTVPSSSLGTQTYICNVNHKPSNTKVDEKVEPKSCDKTHTCPPCPAPEAAGGPSVFLFPPKPKDTLMISRTPEVTCVVVDVSHEDPEVKFNWYVDGVEVHNAKTKPREEQYNSTYRVVSVLTVLHQDWLNGKEYKCKVSNKALGAPIEKTISKAKGQPREPQVCTLPPSRDELTKNQVSLSCAVKGFYPSDIAVEWESNGQPENNYKTTPPVLDSDGSFFLVSKLTVDKSRWQQGNVFSCSVMHEALHNHYTQKSLSLSP heavy 2: not shown |  |  | 117 pM
